Values of other authors as cited in patent publication US8679781B2, “In vitro peptide expression library” (Isogenica Limited, priority 2002, dated 2014).

Molecular target: double stranded DNA oestrogen receptor target HRE nucleotide sequence
Details: fragment expressed in E. coli; similar to the parent molecule; read-out: affinity

Kd: 0.5 nM
B1: oestrogen receptor DNA binding domain fragment (amino acids 176-282): oestrogen receptor DNA binding domain fragment (amino acids 176-282) expressed in E. coli (protein, UniProt P03372 176-282, looked up, fragment)
chain: MESAKETRYCAVCNDYASGYHYGVWSCEGCKAFFKRSIQGHNDYMCPATNQCTIDKNRRKSCQACRLRKCYEVGMMKGGIRKDRRGGRMLKHKRQRDDGEGRGEVGS
